Test results published in paper PMC10397247.
Like-named read-outs stand apart in the source and are kept apart here. Blank lines part the entries; values can stand above or below the binder they belong to.

Assays:
P9 = target: T1, P9; test: two-hybrid library CC1;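 also: natural log of median RNA to DNA barcode read ratio; higher means stronger binding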
T1 chain: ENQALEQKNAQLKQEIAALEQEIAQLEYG

4H4033-AA = target: T2, 4H4033-AA; test: two-hybrid library CCmax;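 also: natural log of median RNA to DNA barcode read ratio; higher means stronger binding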
T2 chain: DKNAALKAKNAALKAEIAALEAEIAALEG

4H481-AA = target: T3, 4H481-AA; test: two-hybrid library CCmax; conditions: mean of both orientations;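 also: natural log of median RNA to DNA barcode read ratio; higher means stronger binding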
T3 chain: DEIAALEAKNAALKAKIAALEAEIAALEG

4H55-AA = target: T4, 4H55-AA; test: two-hybrid library CCmax; conditions: mean of both orientations;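 also: natural log of median RNA to DNA barcode read ratio; higher means stronger binding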
T4 chain: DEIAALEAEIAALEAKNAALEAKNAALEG

4H662-AA = target: T5, 4H662-AA; test: two-hybrid library CCmax; conditions: mean of both orientations;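 also: natural log of median RNA to DNA barcode read ratio; higher means stronger binding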
T5 chain: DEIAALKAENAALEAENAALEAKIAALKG

4H3102-AA = target: T6, 4H3102-AA; test: two-hybrid library CCmax;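 also: natural log of median RNA to DNA barcode read ratio; higher means stronger binding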
T6 chain: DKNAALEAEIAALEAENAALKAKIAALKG

4H3121-AA = target: T7, 4H3121-AA; test: two-hybrid library CCmax
T7 chain: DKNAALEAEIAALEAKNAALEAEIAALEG

4H3417-AA = target: T8, 4H3417-AA; test: two-hybrid library CCmax; conditions: mean of both orientations
T8 chain: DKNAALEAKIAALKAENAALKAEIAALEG

4H3446-AA = target: T9, 4H3446-AA; test: two-hybrid library CCmax; conditions: mean of both orientations
T9 chain: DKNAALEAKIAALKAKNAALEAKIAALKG

4H3591-AA = target: T10, 4H3591-AA; test: two-hybrid library CCmax; conditions: mean of both orientations
T10 chain: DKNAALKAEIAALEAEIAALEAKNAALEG

4H3628-AA = target: T11, 4H3628-AA; test: two-hybrid library CCmax; conditions: mean of both orientations
T11 chain: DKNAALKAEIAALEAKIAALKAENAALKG

4H3666-AA = target: T12, 4H3666-AA; test: two-hybrid library CCmax; conditions: mean of both orientations
T12 chain: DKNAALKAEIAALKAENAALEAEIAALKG

4H3709-AA = target: T13, 4H3709-AA; test: two-hybrid library CCmax; conditions: mean of both orientations
T13 chain: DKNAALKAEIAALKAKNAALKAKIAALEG

4H391-AA = target: T14, 4H391-AA; test: two-hybrid library CCmax; conditions: mean of both orientations
T14 chain: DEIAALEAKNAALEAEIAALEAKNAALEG

4H3920-AA = target: T15, 4H3920-AA; test: two-hybrid library CCmax; conditions: mean of both orientations
T15 chain: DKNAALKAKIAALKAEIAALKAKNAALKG

4H3939-AA = target: T16, 4H3939-AA; test: two-hybrid library CCmax; conditions: mean of both orientations
T16 chain: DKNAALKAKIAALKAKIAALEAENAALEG

4H428-AA = target: T17, 4H428-AA; test: two-hybrid library CCmax; conditions: mean of both orientations
T17 chain: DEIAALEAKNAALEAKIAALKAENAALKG

4H478-AA = target: T18, 4H478-AA; test: two-hybrid library CCmax; conditions: mean of both orientations
T18 chain: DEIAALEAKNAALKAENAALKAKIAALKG

4H497-AA = target: T19, 4H497-AA; test: two-hybrid library CCmax; conditions: mean of both orientations
T19 chain: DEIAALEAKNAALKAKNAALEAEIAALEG

4H656-AA = target: T20, 4H656-AA; test: two-hybrid library CCmax; conditions: mean of both orientations
T20 chain: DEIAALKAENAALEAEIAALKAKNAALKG

4H675-AA = target: T21, 4H675-AA; test: two-hybrid library CCmax
T21 chain: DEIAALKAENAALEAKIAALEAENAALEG

4H971-AA = target: T22, 4H971-AA; test: two-hybrid library CCmax; conditions: mean of both orientations
T22 chain: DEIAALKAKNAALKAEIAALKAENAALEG

4H730-bH = target: T23, 4H730-bH; test: two-hybrid library CCNG1
T23 chain: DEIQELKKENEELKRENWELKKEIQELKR

4H796-bH = target: T24, 4H796-bH; test: two-hybrid library CCNG1
T24 chain: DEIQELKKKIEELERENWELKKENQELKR

4H932-bH = target: T25, 4H932-bH; test: two-hybrid library CCNG1
T25 chain: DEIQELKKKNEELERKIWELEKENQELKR

4H949-bH = target: T26, 4H949-bH; test: two-hybrid library CCNG1
T26 chain: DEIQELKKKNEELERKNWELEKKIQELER

4H454-bH = target: T27, 4H454-bH; test: two-hybrid library CCNG1
T27 chain: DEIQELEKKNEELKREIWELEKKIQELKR

4H568-bH = target: T28, 4H568-bH; test: two-hybrid library CCNG1
T28 chain: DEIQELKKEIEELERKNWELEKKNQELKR

4H607-bH = target: T29, 4H607-bH; test: two-hybrid library CCNG1
T29 chain: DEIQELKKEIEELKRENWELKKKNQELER

4H687-bH = target: T30, 4H687-bH; test: two-hybrid library CCNG1
T30 chain: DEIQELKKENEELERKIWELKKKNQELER

4H717-bH = target: T31, 4H717-bH; test: two-hybrid library CCNG1
T31 chain: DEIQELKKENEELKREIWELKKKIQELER

4H72-bH = target: T32, 4H72-bH; test: two-hybrid library CCNG1
T32 chain: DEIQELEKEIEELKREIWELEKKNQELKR

4H754-bH = target: T33, 4H754-bH; test: two-hybrid library CCNG1
T33 chain: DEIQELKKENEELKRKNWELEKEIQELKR

4H797-bH = target: T34, 4H797-bH; test: two-hybrid library CCNG1
T34 chain: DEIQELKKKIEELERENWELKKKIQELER

4H883-bH = target: T35, 4H883-bH; test: two-hybrid library CCNG1
T35 chain: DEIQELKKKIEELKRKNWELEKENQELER

4H908-bH = target: T36, 4H908-bH; test: two-hybrid library CCNG1
T36 chain: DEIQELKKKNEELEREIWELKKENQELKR

4H918-bH = target: T37, 4H918-bH; test: two-hybrid library CCNG1
T37 chain: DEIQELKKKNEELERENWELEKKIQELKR

4H953-bH = target: T38, 4H953-bH; test: two-hybrid library CCNG1
T38 chain: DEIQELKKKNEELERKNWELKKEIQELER

4H967-bH = target: T39, 4H967-bH; test: two-hybrid library CCNG1
T39 chain: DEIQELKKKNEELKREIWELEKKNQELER

4H477-bN = target: T40, 4H477-bN; test: two-hybrid library CCNG1
T40 chain: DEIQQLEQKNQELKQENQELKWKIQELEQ

4H492-bN = target: T41, 4H492-bN; test: two-hybrid library CCNG1
T41 chain: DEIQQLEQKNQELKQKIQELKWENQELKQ

4H741-bN = target: T42, 4H741-bN; test: two-hybrid library CCNG1
T42 chain: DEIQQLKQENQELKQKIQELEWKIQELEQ

4H932-bN = target: T43, 4H932-bN; test: two-hybrid library CCNG1
T43 chain: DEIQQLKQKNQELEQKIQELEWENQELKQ

4H730-bN = target: T44, 4H730-bN; test: two-hybrid library CCNG1
T44 chain: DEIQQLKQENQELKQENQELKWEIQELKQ

4H796-bN = target: T45, 4H796-bN; test: two-hybrid library CCNG1
T45 chain: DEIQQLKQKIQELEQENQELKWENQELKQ

4H949-bN = target: T46, 4H949-bN; test: two-hybrid library CCNG1
T46 chain: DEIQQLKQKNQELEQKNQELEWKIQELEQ

4H895-AA = target: T47, 4H895-AA; test: two-hybrid library CCmax
T47 chain: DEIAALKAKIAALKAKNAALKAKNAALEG

4H_APH = target: T48, 4H_APH; test: two-hybrid library CCmax; conditions: mean of both orientations
T48 chain: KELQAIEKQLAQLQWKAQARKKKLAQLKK

4H_BCR = target: T49, 4H_BCR; test: two-hybrid library CCmax; conditions: mean of both orientations
T49 chain: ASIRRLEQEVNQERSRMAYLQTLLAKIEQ

4H_GCN4 = test: two-hybrid library CCmax
Sequence of 4H_GCN4 (chain, as listed by the source): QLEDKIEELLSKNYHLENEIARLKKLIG

GCN2_T = test: two-hybrid library CCmax; conditions: mean of both orientations
4H3922-AA = target: T50, 4H3922-AA; test: two-hybrid library CCmax
T50 chain: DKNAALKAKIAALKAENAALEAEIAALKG

4H619-bN = target: T51, 4H619-bN; test: two-hybrid library CCNG1
T51 chain: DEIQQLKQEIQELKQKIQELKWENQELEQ

4H850-bN = target: T52, 4H850-bN; test: two-hybrid library CCNG1
T52 chain: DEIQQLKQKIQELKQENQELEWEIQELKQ

4H906-bN = target: T53, 4H906-bN; test: two-hybrid library CCNG1
T53 chain: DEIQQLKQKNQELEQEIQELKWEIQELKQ

B1: P9 (peptide)
chain: ENQALEQKNAQLKQEIAALEQEIAQLEYG
interaction score (P9): -2.32

B3: 4H3102-AA (peptide)
chain: DKNAALEAEIAALEAENAALKAKIAALKG
interaction score (4H3102-AA): 1.69
interaction score (4H3121-AA; mean of both orientations): -0.0964
interaction score (4H3417-AA): 2.29
interaction score (4H3446-AA): 0.0866
interaction score (4H3591-AA): -1.16
interaction score (4H3628-AA): -0.57
interaction score (4H3666-AA): 1.73
interaction score (4H3709-AA): 1.43
interaction score (4H391-AA): -0.9
interaction score (4H3920-AA): -1.16
interaction score (4H3939-AA): -1.39
interaction score (4H428-AA): 0.651
interaction score (4H478-AA): 1.81
interaction score (4H497-AA): -1.18
interaction score (4H656-AA): 0.534
interaction score (4H675-AA; mean of both orientations): -0.00286
interaction score (4H971-AA): -0.422

B4: 4H730-bH (peptide)
chain: DEIQELKKENEELKRENWELKKEIQELKR
interaction score (4H730-bH): 1.5
interaction score (4H796-bH): -0.301
interaction score (4H932-bH): -1.05
interaction score (4H949-bH): 0.0896

B5: 4H454-bH (peptide)
chain: DEIQELEKKNEELKREIWELEKKIQELKR
interaction score (4H454-bH): 1.6
interaction score (4H568-bH): 0.197
interaction score (4H607-bH): -1.61
interaction score (4H687-bH): 1.81
interaction score (4H717-bH): 0.664
interaction score (4H72-bH): 0.203
interaction score (4H754-bH): 0.236
interaction score (4H797-bH): -0.829
interaction score (4H883-bH): -1.26
interaction score (4H908-bH): -0.536
interaction score (4H918-bH): -1.05
interaction score (4H953-bH): 1.26
interaction score (4H967-bH): 0.69

B7: 4H730-bN (peptide)
chain: DEIQQLKQENQELKQENQELKWEIQELKQ
interaction score (4H730-bN): 1.55
interaction score (4H796-bN): -1.29
interaction score (4H932-bN): -0.353
interaction score (4H949-bN): -0.718

B8: 4H895-AA (peptide)
chain: DEIAALKAKIAALKAKNAALKAKNAALEG
interaction score (4H895-AA): -1.19
interaction score (4H_APH): -1.22
interaction score (4H_BCR): -2.06
interaction score (4H_GCN4): -1.86
interaction score (GCN2_T): -1.25

B10: 4H3121-AA (peptide)
chain: DKNAALEAEIAALEAKNAALEAEIAALEG
interaction score (4H3121-AA): -1.24
interaction score (4H3417-AA): -1.39
interaction score (4H3446-AA): 1.8
interaction score (4H3591-AA): -1.55
interaction score (4H3628-AA): -1.32
interaction score (4H3666-AA): -0.746
interaction score (4H3709-AA): -0.104
interaction score (4H391-AA): -1.89
interaction score (4H3920-AA): -1.06
interaction score (4H3939-AA): -1.9
interaction score (4H428-AA): -0.865
interaction score (4H478-AA): -0.966
interaction score (4H497-AA): -1.74
interaction score (4H656-AA): -1.6
interaction score (4H675-AA): -2.08
interaction score (4H971-AA): -1.39

B12: 4H796-bH (peptide)
chain: DEIQELKKKIEELERENWELKKENQELKR
interaction score (4H796-bH): 1.25
interaction score (4H932-bH): -0.89
interaction score (4H949-bH): -0.00426

B13: 4H619-bN (peptide)
chain: DEIQQLKQEIQELKQKIQELKWENQELEQ
interaction score (4H619-bN): 1.24
interaction score (4H850-bN): -0.223
interaction score (4H906-bN): -0.494

Further lines, results first:

interaction score (4H4033-AA): -1.66
interaction score (4H481-AA): -1.15
interaction score (4H55-AA): -1.39
interaction score (4H662-AA): 1.17
B2: 4H4033-AA (peptide)
chain: DKNAALKAKNAALKAEIAALEAEIAALEG

interaction score (4H477-bN): -1.14
interaction score (4H492-bN): -0.94
interaction score (4H741-bN): -1.17
interaction score (4H932-bN): -0.0984
B6: 4H477-bN (peptide)
chain: DEIQQLEQKNQELKQENQELKWKIQELEQ

interaction score (4H796-bN): 1.8
interaction score (4H932-bN): 0.298
interaction score (4H949-bN): -0.619
B9: 4H796-bN (peptide)
chain: DEIQQLKQKIQELEQENQELKWENQELKQ

interaction score (4H3922-AA): -0.436
interaction score (4H4033-AA; mean of both orientations): -0.495
interaction score (4H481-AA): 1.69
interaction score (4H55-AA): -1.32
interaction score (4H662-AA): -1.16
B11: 4H3922-AA (peptide)
chain: DKNAALKAKIAALKAENAALEAEIAALKG
